Here are results for seven molecules from patent US8163516B2 (Algenol Biofuels Inc., priority 2008, dated 2012).

For series [1], the system named is Zymomonas mobilis ADH I (ZmAdhI, AAV89860), SEQ ID NO:2. Particulars: literature values; ranges given jointly for ADH I and ADH II; cited from earlier work.
Series [2] deals with Zymomonas mobilis ADH II (ZmAdhII). Conditions: literature values; ranges given jointly for ADH I and ADH II; cited from earlier work.
The target in series [3] is T1, Synechocystis sp. PCC 6803 alcohol dehydrogenase SynAdh (slr1192, BAA18840), wild type, SEQ ID NO:4, overexpressed, crude extract (Synechocystis sp. PCC 6803, UniProt P74721).
T1 construct: PCC 6803; crude cell extract
T1 sequence (P74721 1-336): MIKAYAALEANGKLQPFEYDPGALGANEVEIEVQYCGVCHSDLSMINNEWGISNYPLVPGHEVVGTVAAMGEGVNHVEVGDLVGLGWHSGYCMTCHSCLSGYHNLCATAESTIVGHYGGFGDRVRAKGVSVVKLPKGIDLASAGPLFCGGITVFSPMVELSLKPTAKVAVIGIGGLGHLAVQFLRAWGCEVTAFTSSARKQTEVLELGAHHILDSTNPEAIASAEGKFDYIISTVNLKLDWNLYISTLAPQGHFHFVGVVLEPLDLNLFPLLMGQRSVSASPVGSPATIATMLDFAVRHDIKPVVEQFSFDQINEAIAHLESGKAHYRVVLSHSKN
Description: Acetaldehyde reduction by crude extract of Synechocystis overexpressing SynAdh, varied cosubstrate (Lineweaver-Burk). It is filed as biochemical. Particulars: pH 6.1.
Description: The Adh enzyme from Synechocystis was further characterized by preparing crude cell extracts from Synechocystis PCC6803 overexpressing SynAdh.
For preparation of crude extracts, cells were pelleted, dissolved in buffer supplemented with 1 mM DTT and broken (beadbeater, 2×10 min, glass beads with 100 μm diameter). The supernatant of a centrifugation (15 min, 14000 rpm, 4° C., Micro 200R, Hettich) was used for the experiments.
The Adh activity was measured as rate of the increase of the absorbance at 340 nm. […] The reaction was started by addition of an acetaldehyde solution to a final concentration of 0.125 mM and the rate of decrease of the absorbance at 340 nm was measured. […] Protein was determined by the method of Lowry.
Measurements were performed at pH 6.1.

Series [4] has as its system Zymomonas mobilis ADH II (with Pdc) in intact Synechocystis PCC 6803 cells, strain 6803-pVZ-PisiA (pVZ-PisiA-Pdc-AdhII). Description: Ethanol production by intact cells of strain 6803-pVZ-PisiA after addition of acetaldehyde (Lineweaver-Burk). It is filed as cell-based, Synechocystis PCC 6803 (Zymomonas mobilis AdhII). On the procedure: Methods: Synechocystis PCC 6803 wild type and the transgenic strain “6803-pVZ-PisiA”, corresponding to the above described Synechocystis pVZ-PisiA-Pdc-AdhII, were washed twice with BG11 (centrifugation 15 min, 4500 rpm, 4° C.; Rotina 420R, Hettich) and redissolved in BG11. Aliquots of 2 ml were spiked with acetaldehyde. The assays were incubated at room temperature under illumination. Samples of 250 μl were removed in defined time intervals (5 min or 10 min) and centrifuged (3 min, 14000 rpm, room temperature, Micro 200R, Hettich).
Ethanol was quantified with a described protocol. The method is based on oxidation of ethanol catalyzed by alcohol dehydrogenase (Sigma, Adh of S. cerevisiae). NADH formed in this reaction, reacts with the PMS/MTT reagent to a dye.
OD750 of the culture was 0.56.
This experiment was repeated with a different culture of strain 6803-pVZ-PisiA of OD750 of 1.353 and a chlorophyll concentration of 4.6 μg/ml. Similar results were obtained.

Series [5] deals with Zymomonas mobilis ADH II, crude extract of Synechocystis strain 6803-pVZ-PisiA (pVZ-PisiA-Pdc-AdhII). As to the kind of experiment: Adh activity of crude extract of strain 6803-pVZ-PisiA in the direction of ethanol formation (Lineweaver-Burk). It is filed as biochemical. Particulars: for Km: read-out: Km for acetaldehyde. Here is the method: For preparation of crude extracts, cells were harvested, washed with 40 mM MES/Tris (pH 6.5), 1 mM DTT and broken (beadbeater, 2×10 min). The supernatant of a centrifugation (15 min, 14000 rpm, 4° C., Micro 200R, Hettich) was used for the determination of Adh activity in cells.
The initial velocity was calculated from the dE/min at 340 nm.
In order to compare the dates acquired with intact cells, the kinetic constants of alcohol dehydrogenase in crude extracts of strain 6803-pVZ-PisiA were measured. […] A graphical representation of the results obtained is given in form of a “Lineweaver-Burk” plot (FIG. 8).
In a second experiment the Adh activity was measured at pH 7.5. NADH and NADPH were used as co-substrates.

Substrate in series [6]: NC(=O)C1=CN([C@@H]2O[C@H](COP(=O)(O)OP(=O)(O)OC[C@H]3O[C@@H](n4cnc5c(N)ncnc54)[C@H](OP(=O)(O)O)[C@@H]3O)[C@@H](O)[C@H]2O)C=CC1
Description: cells, lysate or membranes. Conditions: other: acetaldehyde reduction, crude extract, pH 6.1.

Substrate in series [7]: NC(=O)C1=CN([C@@H]2O[C@H](COP(=O)(O)OP(=O)(O)OC[C@H]3O[C@@H](n4cnc5c(N)ncnc54)[C@H](O)[C@@H]3O)[C@@H](O)[C@H]2O)C=CC1
As to the kind of experiment: cells, lysate or membranes. Conditions: other: acetaldehyde reduction, crude extract, pH 6.1.

Substrate in series [8]: NC(=O)C1=CN([C@@H]2O[C@H](COP(=O)(O)OP(=O)(O)OC[C@H]3O[C@@H](n4cnc5c(N)ncnc54)[C@H](OP(=O)(O)O)[C@@H]3O)[C@@H](O)[C@H]2O)C=CC1
Description: purified protein, by the assay type. Conditions: other: acetaldehyde reduction.

Substrate in series [9]: CCO
Description: purified protein, by the assay type. Particulars: other: ethanol oxidation.

Substrate in series [10]: NC(=O)c1ccc[n+]([C@@H]2O[C@H](COP(=O)([O-])OP(=O)(O)OC[C@H]3O[C@@H](n4cnc5c(N)ncnc54)[C@H](OP(=O)(O)O)[C@@H]3O)[C@@H](O)[C@H]2O)c1
As to the kind of experiment: purified protein, by the assay type. Conditions: other: ethanol oxidation.

Substrate in series [11]: NC(=O)c1ccc[n+]([C@@H]2O[C@H](COP(=O)([O-])OP(=O)(O)OC[C@H]3O[C@@H](n4cnc5c(N)ncnc54)[C@H](O)[C@@H]3O)[C@@H](O)[C@H]2O)c1
Description: purified protein, by the assay type. Conditions: other: ethanol oxidation.
Description: (§1) Fraction 2 of the purification was used for the measurement of the kinetic parameters of the SynAdh as described in the following.
(§2) Both ethanol oxidation and acetaldehyde reduction were analyzed at different pH values. Experiments were made at pH 7.5 in presence of high concentrations of KCl in order to mimic the intracellular conditions.
For measurements at pH 8.5 HEPES/KOH was substituted by 30 mM Tris/HCl (pH 8.5), KCl was omitted.
(§3) The Km and vmax values of SynAdh for the different substrates were determined with Lineweaver-Burk plots.

Substrate in series [12]: NC(=O)C1=CN([C@@H]2O[C@H](COP(=O)(O)OP(=O)(O)OC[C@H]3O[C@@H](n4cnc5c(N)ncnc54)[C@H](O)[C@@H]3O)[C@@H](O)[C@H]2O)C=CC1
As to the kind of experiment: purified protein, by the assay type. Particulars: other: acetaldehyde reduction.

Substrate in series [13]: CC=O
Description: Acetaldehyde reduction (forward reaction) by purified SynAdh, Km determination. It is filed as biochemical, Synechocystis sp. PCC 6803. Conditions: other: acetaldehyde reduction.
Description: as §1, §2
For measurements at pH 6.0 HEPES/KOH was substituted by 30 mM MES/KOH (pH 6.0), KCl was omitted.
as §3

The mark [14] stands for this setting: pH 7.5, NADH 0.25 M or NADPH 0.21 M.

Read-outs that look alike come from different tables or passages of the source.

For `CCO` [ethanol], the results for the Km in series [1] and in series [2] were 24 µM and 140 µM, respectively.

Turning to `NC(=O)C1=CN([C@@H]2O[C@H](COP(=O)(O)OP(=O)(O)OC[C@H]3O[C@@H](n4cnc5c(N)ncnc54)[C@H](O)[C@@H]3O)[C@@H](O)[C@H]2O)C=CC1` [NADH, reduced nicotinamide-adenine dinucleotide], in [3], the “vmax for NADH” value is given as 1.6 μMol min^−1 ml^−1 crude extract.

`NC(=O)C1=CN([C@@H]2O[C@H](COP(=O)(O)OP(=O)(O)OC[C@H]3O[C@@H](n4cnc5c(N)ncnc54)[C@H](OP(=O)(O)O)[C@@H]3O)[C@@H](O)[C@H]2O)C=CC1` [NADPH]: the “vmax for NADPH” value in [3] was 0.4 μMol min^−1 ml^−1 crude extract.

Consider `CC=O` [acetaldehyde], for which the Km was found to be 18 µM in [4] (OD750 0.56); 25 µM in series [4] (repeat, OD750 1.353, chlorophyll 4.6 μg/ml); 45 µM in [5] (pH 6.5, NADH in excess); 100 µM in series [5] (setting [14]). The Vmax was 3.2 µmol/L/min in [4] (OD750 0.56); 4.35 µmol/L/min in [4] (repeat, OD750 1.353); 0.95 µmol/L/mg in [4] (repeat, using chlorophyll as reference); 7.2 μMol L^−1 mg^−1 chlorophyll in series [5] (pH 6.5, NADH in excess); 0.89 μMol L^−1 mg^−1 chlorophyll in [5] (setting [14]).

Take `NC(=O)c1ccc[n+]([C@@H]2O[C@H](COP(=O)([O-])OP(=O)(O)OC[C@H]3O[C@@H](n4cnc5c(N)ncnc54)[C@H](O)[C@@H]3O)[C@@H](O)[C@H]2O)c1` [NAD^+, nicotinamide-adenine dinucleotide]: the Km in [1] is 73 µM; in series [2], 110 µM.

B1: Synechocystis sp. PCC 6803 alcohol dehydrogenase SynAdh (slr1192, BAA18840), wild type, SEQ ID NO:4, overexpressed, crude extract (Synechocystis sp. PCC 6803 … (protein)
chain: MIKAYAALEANGKLQPFEYDPGALGANEVEIEVQYCGVCHSDLSMINNEWGISNYPLVPGHEVVGTVAAMGEGVNHVEVGDLVGLGWHSGYCMTCHSCLSGYHNLCATAESTIVGHYGGFGDRVRAKGVSVVKLPKGIDLASAGPLFCGGITVFSPMVELSLKPTAKVAVIGIGGLGHLAVQFLRAWGCEVTAFTSSARKQTEVLELGAHHILDSTNPEAIASAEGKFDYIISTVNLKLDWNLYISTLAPQGHFHFVGVVLEPLDLNLFPLLMGQRSVSASPVGSPATIATMLDFAVRHDIKPVVEQFSFDQINEAIAHLESGKAHYRVVLSHSKN
For the molecule B1, the Km in series [6] was determined as 15 µM; in series [7] it was 1000 µM.

B2: Synechocystis sp. PCC 6803 alcohol dehydrogenase SynAdh (slr1192, BAA18840), wild type, SEQ ID NO:4, purified (Synechocystis sp. PCC 6803 substr. Kazusa) (protein)
chain: MIKAYAALEANGKLQPFEYDPGALGANEVEIEVQYCGVCHSDLSMINNEWGISNYPLVPGHEVVGTVAAMGEGVNHVEVGDLVGLGWHSGYCMTCHSCLSGYHNLCATAESTIVGHYGGFGDRVRAKGVSVVKLPKGIDLASAGPLFCGGITVFSPMVELSLKPTAKVAVIGIGGLGHLAVQFLRAWGCEVTAFTSSARKQTEVLELGAHHILDSTNPEAIASAEGKFDYIISTVNLKLDWNLYISTLAPQGHFHFVGVVLEPLDLNLFPLLMGQRSVSASPVGSPATIATMLDFAVRHDIKPVVEQFSFDQINEAIAHLESGKAHYRVVLSHSKN
For the molecule B2, the Km in [8] (pH 6.0) was 20 μM μM; in [8] (pH 7.5, 150 mM KCl, pH 7.5), 15 μM μM; in [8] (purified enzyme), 15 µM; in series [9] (pH 7.5, 150 mM KCl, pH 7.5), 23 mM mM; in series [9] (pH 8.5) it was 59 mM mM; in [10] (pH 7.5, 150 mM KCl, pH 7.5), 15 μM μM. Moreover, the Km in [10] (pH 8.5) worked out at 15 μM μM; in series [11] (pH 7.5, 150 mM KCl, pH 7.5) it was 10 mM mM; in [11] (pH 8.5), 10 mM mM; in series [12] (pH 7.5, 150 mM KCl, pH 7.5) it was 1000 μM μM; in [12] (purified enzyme) it was 1000 µM; in series [13] (pH 6.0), 200 μM μM. Besides, the Km in series [13] (pH 7.5, 150 mM KCl, pH 7.5) was found to be 180 μM μM; in [13] (purified enzyme) it was 200 µM.
